Our source for the Kd, koff and kon values is patent publication EP4737482A1 (Atheon Bio, Inc., dated 2026).

Positions count from the first letter of the chain named. Some results are limits rather than exact numbers.

T1: human MYCT1 (hMYCT1) (human, UniProt Q8N699 1-235, limits assumed)
T1 construct: also called MYC Target 1
T1 sequence: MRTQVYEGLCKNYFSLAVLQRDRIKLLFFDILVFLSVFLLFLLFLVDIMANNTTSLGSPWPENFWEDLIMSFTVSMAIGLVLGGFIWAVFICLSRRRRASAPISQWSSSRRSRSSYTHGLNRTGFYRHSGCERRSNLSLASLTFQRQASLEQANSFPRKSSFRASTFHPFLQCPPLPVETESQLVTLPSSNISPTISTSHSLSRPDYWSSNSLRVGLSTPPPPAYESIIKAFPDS

B1: 2B4-p1-uIgG1K (antibody, V domains shown)
VH: EVQLQQSGPELVKPGASVKMSCKASGYTFTDYNMHWVRQSHGKGLEWIGYINPNQGGSSYNRKFKGKATLTVNKSSRSASMELRSLTSEDSAVYYCATRFDVWGTGTTVTVSS
VL: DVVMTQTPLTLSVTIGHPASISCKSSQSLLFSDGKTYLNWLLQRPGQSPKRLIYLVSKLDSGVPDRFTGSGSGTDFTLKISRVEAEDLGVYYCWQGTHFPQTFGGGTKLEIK
B2: 2B4-p4-uIgG1K (antibody, V domains shown)
VH: B1 VH with Q55N
VL: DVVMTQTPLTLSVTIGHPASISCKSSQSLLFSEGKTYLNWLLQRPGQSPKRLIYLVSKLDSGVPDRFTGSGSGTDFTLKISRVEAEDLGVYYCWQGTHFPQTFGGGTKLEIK
B3: 2B4-p2-uIgG1K (antibody, V domains shown)
VH: B1 VH with Q55S
VL: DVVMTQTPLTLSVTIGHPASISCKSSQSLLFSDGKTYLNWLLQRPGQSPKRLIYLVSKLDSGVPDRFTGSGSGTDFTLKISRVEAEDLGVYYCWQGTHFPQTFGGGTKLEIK
B4: 2B4-p3-uIgG1K (antibody, V domains shown)
VH: B1 VH with Q55N, G56A
VL: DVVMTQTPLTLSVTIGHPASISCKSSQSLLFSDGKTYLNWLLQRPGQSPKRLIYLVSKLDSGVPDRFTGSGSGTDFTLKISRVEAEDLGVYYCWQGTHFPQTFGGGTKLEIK
B5: 2B4-p6-uIgG1K (antibody, V domains shown)
VH: B1 VH with Q55N
VL: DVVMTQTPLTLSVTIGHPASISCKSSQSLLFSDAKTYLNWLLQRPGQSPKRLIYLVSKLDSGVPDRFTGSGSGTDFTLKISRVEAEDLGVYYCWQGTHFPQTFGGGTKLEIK
B6: 2B4-z2-uIgG1K (antibody, V domains shown)
VH: QVQLVQSGAEVKKPGASVKVSCKASGYTFTDYNMHWVRQAPGQGLEWMGYINPNNGGSSYNRKFKGRVTMTTDTSTSTAYMELRSLRSDDTAVYYCATRFDVWGQGTTVTVSS
VL: DVVMTQSPLSLPVTLGQPASISCKSSQSLLFSDGKTYLNWLQQRPGQSPRRLIYLVSKLDSGVPDRFSGSGSGTDFTLKISRVEAEDVGVYYCWQGTHFPQTFGGGTKVEIK
B7: 2B4-z15-uIgG1K (antibody, V domains shown)
VH: B6 VH with V20M, M48I, M70L, T72V, T74K, S77R
VL: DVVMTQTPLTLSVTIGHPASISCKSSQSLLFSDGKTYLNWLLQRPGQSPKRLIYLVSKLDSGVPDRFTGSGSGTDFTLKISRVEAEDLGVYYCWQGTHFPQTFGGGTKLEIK
B8: 2B4-z13-uIgG1K (antibody, V domains shown)
VH: B6 VH with V20M, M48I, M70L, T72V, T74K, S77R
VL: B6 VL
B9: 2B4-z12-uIgG1K (antibody, V domains shown)
VH: B6 VH with V20M, M70L, T72V, T74K, S77R
VL: B6 VL
B10: 2B4-z7-uIgG1K (antibody, V domains shown)
VH: B6 VH with V20M
VL: B6 VL
B11: 2B4-z11-uIgG1K (antibody, V domains shown)
VH: B6 VH with M70L, T72V, T74K, S77R
VL: B6 VL
B12: 2B4-z8-uIgG1K (antibody, V domains shown)
VH: B6 VH with M48I
VL: B6 VL
B13: 2B4-z3-uIgG1K (antibody, V domains shown)
VH: B6 VH with M70L
VL: B6 VL
B14: 2B4-z4-uIgG1K (antibody, V domains shown)
VH: B6 VH with T72V
VL: B6 VL
B15: 2B4-z10-uIgG1K (antibody, V domains shown)
VH: B6 VH with T72V, T74K, S77R
VL: B6 VL
B16: 2B4-z5-uIgG1K (antibody, V domains shown)
VH: B6 VH with T74K
VL: B6 VL
B17: 2B4-z6-uIgG1K (antibody, V domains shown)
VH: B6 VH with S77R
VL: B6 VL
B18: 2B4-z14-uIgG1K (antibody, V domains shown)
VH: B1 VH with Q55N
VL: B6 VL
B19: 11B6-z10-uIgG1K (antibody, V domains shown)
VH: EVQLVESGGGLVKPGGSLRLSCAASGFTFSDFGIHWVRQAPGKGLEWVGYISSGSRTIHYADTVKGRFTISRDNAKNSLYLQMNSLRAEDTAVYYCARRDWDPEWLAYWGQGTLVTVSS
VL: DVVMTQSPLSLPVTPGEPASISCRSSLSLVHSNGHTYLHWYLQKPGQSPQLLIYKVSNRFSGVPDRFSGSGSGTDFTLKISRVEAEDVGVYFCSQSTHVPFTFGQGTKLEIK
B20: 11B6-z12-uIgG1K (antibody, V domains shown)
VH: B19 VH with V93I
VL: B19 VL with Q50K, S81R
B21: 11B6-z13-uIgG1K (antibody, V domains shown)
VH: B19 VH with S78T, Y80F, V93I
VL: B19 VL with Q50K, S81R
B22: 11B6-z11-uIgG1K (antibody, V domains shown)
VH: B19 VH with V93I
VL: B19 VL
B23: 2B4-z8-p7-uIgG1K (antibody, V domains shown)
VH: B6 VH with M48I, N55S
VL: B6 VL with G34A
B24: 2B4-z2-p7-uIgG1K (antibody, V domains shown)
VH: B6 VH with N55S
VL: B6 VL with G34A
B25: 11B6-z12-p3-uIgG1K (antibody, V domains shown)
VH: B19 VH with V93I
VL: B19 VL with G34A, Q50K, S81R
B26: 11B6-z10-p3-uIgG1K (antibody, V domains shown)
VH: B19 VH
VL: B19 VL with G34A
B27: 11B6-z16-p3-uIgG1K (antibody, V domains shown)
VH: B19 VH
VL: B19 VL with V2I, G34A, Q50K
notes: also called hzATN001; ATN001

The target of one assay is T1, human MYCT1 (hMYCT1). Put plainly: SPR (Biacore 8K), antibody captured via anti-human Fc IgG, MYCT1 as analyte, steady-state affinity model. (In general: Surface plasmon resonance follows binding to a sensor surface in real time, without labels.)
By Kd is commonly meant a measure of binding affinity in units of concentration. Low readings indicate tighter binding, high ones weaker binding. Molecule B1 showed a Kd of 264 nM.

Take B2: the Kd is greater than 500 nM. Same read-out and setting: the value for B3 was 224 nM. With B4, the Kd turned out to be 270 nM. The Kd values of the last two molecules are within 1.5-fold of each other. In turn, B5 registered a Kd of 288 nM.

A further assay has as its target T1, human MYCT1 (hMYCT1). Described as above. The source holds these as a separate data set.
For the molecule B6, binding was put at a Kd of 368 nM. On the same count and under the same terms, in the case of B7 it was 617 nM; in that of B8, 443 nM.

In turn, B9 registered a dissociation constant Kd of 428 nM. The same measure, in the same setting: in the case of B10 it was 382 nM. The same measure, in the same setting: in the case of B11 it was 449 nM; in that of B12, 321 nM. Same read-out and setting: the value for B13 was 332 nM; that for B14 was 354 nM. The molecule B15 displayed a Kd of 456 nM. The Kd values of the last two molecules are within 1.5-fold of each other. B16 came in with a dissociation constant Kd of 351 nM. Regarding B17, the Kd worked out at 447 nM. B18 had a dissociation constant (Kd) of 203 nM.

In another assay the target is T1, human MYCT1 (hMYCT1). The assay is described as follows: SPR koff ranking, single curve, antibody captured via anti-human Fc IgG, 10 nM MYCT1 as analyte, 1:1 binding model.
The term koff denotes a measure of how fast the partners let go of each other. A high value points to fast dissociation. B19: the off-rate constant (koff) is 0.0102 s⁻¹. For the molecule B20, the koff was found to be 0.00838 s⁻¹.

The molecule B21 showed a koff of 0.00838 s⁻¹.

Take B22: the koff is 0.0102 s⁻¹.

Another assay concerns the target T1, human MYCT1 (hMYCT1). The assay is described as follows: SPR full kinetics (Biacore 8K), antibody captured via anti-human Fc IgG, MYCT1 as analyte, steady-state affinity model.
Consider B23, for which binding was put at a Kd of 586 nM. The same measure, in the same setting: the value for B24 was 484 nM.

The target of a further assay is T1, human MYCT1 (hMYCT1). Put plainly: SPR full kinetics, multicycle, antibody captured via anti-human Fc IgG, MYCT1 0.625-10 nM as analyte, 1:1 binding model.
A word on the kon: it is the rate constant with which the complex forms. Read a low kon as slow association. B25 showed a Kd of 2.35 nM, a koff of 0.00786 s⁻¹ and a kon of 3.35e+06 M⁻¹ s⁻¹. For B26 the same measures were 3.34 nM, 0.0122 s⁻¹ and 3.65e+06 M⁻¹ s⁻¹. Turning to B27, the Kd came to 2.53 nM, the koff was 0.00841 s⁻¹ and the kon amounted to 3.32e+06 M⁻¹ s⁻¹.
